In PMC8024894:

Assays:
[1] = target: endogenous neurexin on the surface of immature hippocampal neurons (mouse (endogenous in primary hippocampal neurons)) (UniProt Q9CS84); test: immunostaining of cells or tissue; cell surface binding assay, apparent Kd: Fc protein at 0-100 nM in HEPES bath solution, 1 h at room temperature, on DIV10 hippocampal neurons transduced with control (empty vector) lentivirus; Fc signal normalised to neurexin staining
[2] = target: endogenous neurexin on the surface of immature hippocampal neurons (mouse (endogenous in primary hippocampal neurons)) (UniProt Q9CS84); test: immunostaining of cells or tissue; cell surface binding assay, apparent Kd: Fc protein at 0-100 nM in HEPES bath solution, 1 h at room temperature, on DIV10 hippocampal neurons transduced with CA10-FLAG lentivirus; Fc signal normalised to neurexin staining

Sequence of UniProt Q9CS84 (Q9CS84 31-1514): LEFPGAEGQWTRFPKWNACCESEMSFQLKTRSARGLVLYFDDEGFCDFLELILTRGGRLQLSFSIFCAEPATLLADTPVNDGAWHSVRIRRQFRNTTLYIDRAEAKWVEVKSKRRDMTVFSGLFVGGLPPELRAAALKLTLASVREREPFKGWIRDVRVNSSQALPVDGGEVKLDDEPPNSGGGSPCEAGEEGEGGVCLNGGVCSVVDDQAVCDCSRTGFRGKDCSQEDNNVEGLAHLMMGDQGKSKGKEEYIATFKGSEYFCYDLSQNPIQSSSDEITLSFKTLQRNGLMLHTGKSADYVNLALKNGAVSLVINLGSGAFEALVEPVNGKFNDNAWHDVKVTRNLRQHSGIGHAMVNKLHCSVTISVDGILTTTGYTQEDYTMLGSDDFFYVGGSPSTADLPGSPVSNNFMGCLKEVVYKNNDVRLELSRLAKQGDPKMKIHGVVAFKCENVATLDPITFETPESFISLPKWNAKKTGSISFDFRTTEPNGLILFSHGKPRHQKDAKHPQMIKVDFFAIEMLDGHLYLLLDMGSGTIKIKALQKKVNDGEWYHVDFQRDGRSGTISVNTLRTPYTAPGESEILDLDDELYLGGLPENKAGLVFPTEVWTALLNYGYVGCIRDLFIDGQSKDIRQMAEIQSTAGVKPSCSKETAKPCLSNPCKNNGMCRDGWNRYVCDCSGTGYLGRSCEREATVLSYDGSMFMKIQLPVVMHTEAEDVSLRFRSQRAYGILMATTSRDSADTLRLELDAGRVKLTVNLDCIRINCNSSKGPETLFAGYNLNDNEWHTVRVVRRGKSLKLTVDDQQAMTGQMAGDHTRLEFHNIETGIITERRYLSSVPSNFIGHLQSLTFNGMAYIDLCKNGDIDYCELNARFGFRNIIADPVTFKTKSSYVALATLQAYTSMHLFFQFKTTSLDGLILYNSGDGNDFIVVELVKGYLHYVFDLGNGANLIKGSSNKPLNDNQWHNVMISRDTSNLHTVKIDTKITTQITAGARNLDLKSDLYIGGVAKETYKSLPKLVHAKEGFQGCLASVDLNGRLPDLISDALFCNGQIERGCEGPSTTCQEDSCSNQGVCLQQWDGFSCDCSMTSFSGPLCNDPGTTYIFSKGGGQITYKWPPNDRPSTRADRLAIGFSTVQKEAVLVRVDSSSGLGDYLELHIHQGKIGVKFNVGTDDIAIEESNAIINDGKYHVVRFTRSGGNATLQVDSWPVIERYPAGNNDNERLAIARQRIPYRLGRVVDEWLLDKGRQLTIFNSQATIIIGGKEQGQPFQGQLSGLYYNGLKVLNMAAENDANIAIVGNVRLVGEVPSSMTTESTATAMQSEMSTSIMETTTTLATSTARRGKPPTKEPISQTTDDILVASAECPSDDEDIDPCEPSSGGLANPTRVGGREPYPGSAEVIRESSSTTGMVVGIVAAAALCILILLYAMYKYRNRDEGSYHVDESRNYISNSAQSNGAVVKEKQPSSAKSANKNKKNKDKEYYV

Kd [1] [µM]	Kd [2] [µM]	Molecule
0.186	0.223	Fc‐tagged Nlgn1 (Fc fusion)
0.0295	0.0353	Fc‐tagged LRRTM2 (Fc fusion) CPPKCRCEKLLFYCDSQGFHSVPNATDKGSLGLSLRHNHITELERDQFASFSQLTWLHLDHNQISTVKEDAFQGLYKLKELILSSNKIFYLPNTTFTQLINLQNLDLSFNQLSSLHPELFYGLRKLQTLHLRSNSLRTIPVRLFWDCRSLEFLDLSTNRLRSLARNGFAGLIKLRELHLEHNQLTKINFAHFLRLSSLHTLFLQWNKISNLTCGMEWTWGTLEKLDLTGNEIKAIDLTVFETMPNLKILLMDNNKLNSLDSKILNSLRSLTTVGLSGNLWECSARICALASWLGSFQGRWEHSILCHSPDHTQGEDILDAVHGFQLCWNLSTTVTVMATTYRDPTTEYTKRISSSSYHVGDKEIPTTAGIAVTTEEHFPEPDNAIFTQR
